Experiment [1] has as its target staphylococcal protein A ligand of the BabyBio A column (Bio-Works) (staphylococcal (so in the source)). Description: affinity chromatography; dynamic binding capacity at 10% breakthrough; 1 mL columns of peptide-coupled agarose or BabyBio A; 1 mg/mL infliximab in 0.01% PBST pH 7.4 loaded at 0.5 mL/min; elution with 20 mM glycine-HCl pH 3.0 (peptide resins) or 100 mM Na-citrate pH 3.0 (BabyBio A).

The target in experiment [2] is polyclonal human IgG (Octagam, Octapharma) (human). Description: ELISA; phage ELISA; MaxiSorp wells coated with human polyclonal IgG (Octagam, 5 µg/mL), blocked with skimmed milk; peptide-displaying phagemid virions in solution, 2 × 10^9 virions per well or serial dilutions from 2.5 × 10^10 to 1.95 × 10^8 virions per well; detection with HRP-conjugated anti-M13 antibody and TMB; triplicate. For orientation: In an ELISA, binding on a coated surface is turned into a signal by an enzyme label.

Consider “infliximab (Remsima, Celltrion) (antibody)”, for which, in experiment [1], the amount of infliximab in the eluate was 41.2 mg and the dynamic binding capacity at 10% breakthrough turned out to be 41.3 mg/mL.

As to GSYWYNVWF [peptide A displayed on pIT2-SL phagemid virions], in experiment [2], the fold higher estimated affinity than the parent peptide min19Fc-Q6D is 16 fold.

The values are drawn from PMC8173005.
